Source: patent publication US7022323

Columns and labels:
[1] = biological target: DC-SIGN (Dendritic Cell-Specific Intercellular adhesion molecule 3-Grabbing Nonintegrin), human, expressed on HeLa-DC-SIGN cells (homo sapien) (UniProt Q9NNX6); assay: flow cytometry on HeLa-DC-SIGN cells
[2] = biological target: DC-SIGNR (DC-SIGN Related), human, expressed on HeLa-DC-SIGN-R cells (homo sapien) (UniProt Q9H2X3); assay: flow cytometry on HeLa-DC-SIGN-R cells
DC-SIGNR (DC-SIGN Related), human, expressed on HeLa-DC-SIGN-R cells (homo sapien), sequence (Q9H2X3 whole entry C368X): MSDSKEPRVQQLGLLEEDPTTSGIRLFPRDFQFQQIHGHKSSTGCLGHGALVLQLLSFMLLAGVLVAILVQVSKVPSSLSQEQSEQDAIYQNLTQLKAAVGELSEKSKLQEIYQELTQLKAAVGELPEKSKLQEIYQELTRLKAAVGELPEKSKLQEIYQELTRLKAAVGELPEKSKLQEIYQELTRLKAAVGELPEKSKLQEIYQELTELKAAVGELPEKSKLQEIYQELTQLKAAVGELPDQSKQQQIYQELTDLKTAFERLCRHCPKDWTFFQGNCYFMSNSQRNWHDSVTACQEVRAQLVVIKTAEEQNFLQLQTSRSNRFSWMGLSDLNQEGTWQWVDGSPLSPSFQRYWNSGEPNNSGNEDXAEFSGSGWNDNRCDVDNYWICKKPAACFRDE

DC-SIGN (Dendritic Cell-Specific Intercellular adhesion molecule 3-Grabbing Nonintegrin), human, expressed on HeLa-DC-SIGN cells (homo sapien), sequence (Q9NNX6 whole entry): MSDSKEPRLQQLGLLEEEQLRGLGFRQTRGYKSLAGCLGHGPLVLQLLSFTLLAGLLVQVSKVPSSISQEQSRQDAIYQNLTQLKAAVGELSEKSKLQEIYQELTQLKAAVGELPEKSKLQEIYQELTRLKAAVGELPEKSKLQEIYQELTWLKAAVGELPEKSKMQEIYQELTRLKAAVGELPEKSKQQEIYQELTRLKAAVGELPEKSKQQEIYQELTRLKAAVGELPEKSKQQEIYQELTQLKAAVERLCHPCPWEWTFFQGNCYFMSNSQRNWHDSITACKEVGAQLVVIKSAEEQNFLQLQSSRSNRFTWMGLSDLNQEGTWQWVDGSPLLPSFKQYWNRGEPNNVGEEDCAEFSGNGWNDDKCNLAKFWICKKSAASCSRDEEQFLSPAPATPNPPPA

Substance | % Positive Cells [1] [%] | Mean fluorescence intensity [1] | % Positive Cells [2] [%] | Mean fluorescence intensity [2]
120612 (612X), mouse IgG2a mAb that recognizes both DC-SIGN and DC-SIGN-R (BD Pharmingen) (antibody) | 67.3 | 46.6 | 94.8 | 102
120604 (604L), DC-SIGN-R-specific mouse IgG2b mAb (BD Pharmingen) (antibody) | 1.1 | 14.2 | 96 | 129
Isotype control (antibody) | 1 | 16.9 | 2.8 | 13.7
120507 (507D), DC-SIGN-specific mouse IgG2b mAb (BD Pharmingen) (antibody) | 90.6 | 81.1 | 3.5 | 17.1
